Here are results for four molecules from US20120316071A1 (published 2012).

The target of experiment [1] is T1, rHuman Notch-1/Fc Chimera, CF (R&D Systems Cat#3647-TK) (human, UniProt P46531 19-526).
T1 construct: Bought Fc chimera; Fc part of the bought chimera not given
Description: MSD Multispot ECL, antigen spotted on plate, Fab at 30 nM; blank spot 213.

For experiment [2], the target named is T2, rHuman CD44/Fc Chimera, CF (R&D Systems Cat#3660-CD) (human, UniProt P16070 21-220).
T2 construct: Bought Fc chimera; Fc part of the bought chimera not given
Described as above.

Experiment [3] concerns the target T3, Recombinant Human DLL4 (R&D Systems Cat#1506-D4/CF) (human, UniProt Q9NR61 27-524).
T3 construct: Bought recombinant protein; also called rHuman DLL4; delta-like protein 4
Described as above.

Experiment [4] concerns the target T4, rHuman Notch-1/Fc Chimera, CF (R&D Systems Cat#3647-TK) (human, UniProt P46531 19-526).
T4 construct: Bought reagent
Description: MSD multispot ECL, antigen spotted, Fab 9.3 nM; blank spot 287.

Experiment [5] concerns the target T5, rHuman CD44/Fc Chimera, CF (R&D Systems Cat#3660-CD) (human, UniProt P16070 21-220).
T5 construct: Bought reagent
The experiment is described as above.

For experiment [6], the target named is T6, rHuman EGF R/Fc Chimera, CF (R&D Systems Cat#344-ER) (human, UniProt P00533 25-645).
T6 construct: Bought reagent; also called epidermal growth factor receptor
The description is as above.

The target in experiment [7] is T7, rHuman IGF-1 sR, (IGF-1 sR), CF (R&D Systems Cat#391-GR) (human, UniProt P08069 31-932).
T7 construct: Bought soluble receptor; also called insulin-like growth factor-1 soluble receptor
The description is as above.

The target of experiment [8] is T8, rHuman ErbB2/Fc Chimera, CF (R&D Systems Cat#1129-ER) (human, UniProt P04626 23-652).
T8 construct: Bought reagent; also called human epidermal growth factor 2 receptor
The description is as above.

For experiment [9], the target named is T9, Recombinant Human DLL4 (R&D Systems Cat#1506-D4/CF) (human, UniProt Q9NR61 27-524).
T9 construct: Bought recombinant protein; also called rHuman DLL4; delta-like protein 4
Described as above.

The target of experiment [10] is T10, rHuman HGF R/c-MET/Fc Chimera, CF (R&D Systems Cat#358-MT/CF) (human, UniProt P08581 25-932).
T10 construct: Bought reagent; also called HGF R/Fc; hepatocyte growth factor receptor
The experiment is described as above.

For experiment [11], the target named is T11, rHuman Erythropoietin R/Fc Chimera, CF (R&D Systems Cat#963-ER) (human, UniProt P19235 25-250).
T11 construct: Bought reagent; also called EPO R/Fc; Epo R
T11 sequence (looked up): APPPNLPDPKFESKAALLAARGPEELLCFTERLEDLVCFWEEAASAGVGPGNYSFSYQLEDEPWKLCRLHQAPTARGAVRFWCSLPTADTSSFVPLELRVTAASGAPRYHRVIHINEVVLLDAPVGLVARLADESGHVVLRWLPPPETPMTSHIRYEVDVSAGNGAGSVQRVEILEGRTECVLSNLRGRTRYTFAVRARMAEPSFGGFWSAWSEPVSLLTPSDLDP
The description is as above.

Experiment [12] deals with T12, rHuman IGF-1 sR, CF (R&D Systems Cat#391-GR) (human, UniProt P08069 31-932).
T12 construct: Bought recombinant soluble receptor; also called insulin-like growth factor-1 soluble receptor
Description: Multispot ECL (MSD), antigen spotted on plate, Fab 500 nM; blank spot 680.

Experiment [13] addresses T13, rHuman Erythropoietin R/Fc Chimera, CF (R&D Systems Cat#963-ER) (human, UniProt P19235 25-250).
T13 construct: Bought recombinant protein; also called EPO R/Fc; Epo R; Fc part of the bought chimera not given
T13 sequence (looked up): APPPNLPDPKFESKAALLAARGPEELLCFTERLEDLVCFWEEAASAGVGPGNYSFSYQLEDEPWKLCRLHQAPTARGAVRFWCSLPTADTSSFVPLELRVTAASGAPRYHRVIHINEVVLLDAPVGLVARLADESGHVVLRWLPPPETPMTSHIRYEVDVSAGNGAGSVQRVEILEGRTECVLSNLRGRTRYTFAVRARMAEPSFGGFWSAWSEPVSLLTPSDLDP
Described as above.

Experiment [14] has as its target T14, Recombinant Human DLL4 (R&D Systems Cat#1506-D4/CF) (human, UniProt Q9NR61 27-524).
T14 construct: Bought recombinant protein; also called rHuman DLL4; delta-like protein 4
Described as above.

Experiment [15] deals with T15, rHuman Notch-1/Fc Chimera, CF (R&D Systems Cat#3647-TK) (human, UniProt P46531 19-526).
T15 construct: Bought recombinant protein; Fc part of the bought chimera not given
Described as above.

For experiment [16], the target named is T16, rHuman HGF R/c-MET/Fc Chimera, CF (R&D Systems Cat#358-MT/CF) (human, UniProt P08581 25-932).
T16 construct: Bought recombinant protein; also called HGF R/Fc; Fc part of the bought chimera not given
Description: ECL Multispot (MSD), antigen spotted; Fab 500 (µM); blank 439.

Experiment [17] has as its target T17, rHuman P-Cadherin/Fc Chimera, CF (R&D Systems Cat#861-PC) (human, UniProt P22223 108-654).
T17 construct: Bought recombinant protein; Fc part of the bought chimera not given
The description is as above.

The target in experiment [18] is T18, rHuman IGF-1 sR, CF (R&D Systems Cat#391-GR) (human, UniProt P08069 31-932).
T18 construct: Bought recombinant soluble receptor; also called insulin-like growth factor-1 soluble receptor
The experiment is described as above.

Experiment [19] has as its target T19, Recombinant Human DLL4 (R&D Systems Cat#1506-D4/CF) (human, UniProt Q9NR61 27-529).
T19 construct: Bought recombinant protein; also called delta-like protein 4; rHuman DLL4
The experiment is described as above.

In experiment [20] the target is T20, rHuman EGF R/Fc Chimera, CF (R&D Systems Cat#344-ER) (human, UniProt P00533 25-645).
T20 construct: Bought recombinant protein; Fc part of the bought chimera not given
The description is as above.

B1: Fab VH6-1_IGHD3-3*01_IGHJ4*01 & V4-3_IGLJ4*01 (Fab, V domains shown)
VH: QVQLQQSGPGLVKPSQTLSLTCAISGDSVSSNSAAWNWIRQSPSRGLEWLGRTYYRSKWYNDYAVSVKSRITINPDTSKNQFSLQLNSVTPEDTAVYYCAREYYDFWSGYYTDYFDYWGQGTLVTVSS
VL: QPVLTQPTSLSASPGASARLTCTLRSGINLGSYRIFWYQQKPESPPRYLLSYYSDSSKHQGSGVPSRFSGSKDASSNAGILVISGLQSEDEADYYCMIWHSSASFVFGGGTQLIIL
notes: Tested as a purified germline Fab made in E. coli; The VH was cloned into plasmid A (CH1 constant region, His6 and Flag tags) and the lambda VL into plasmid E (lambda CL)
Regarding B1, the results for the ECL signal in [1], in experiment [2] and in experiment [3] were 425, 484 and 736, respectively.

B2: Fab VH1-46_IGHD6-6*01_IGHJ1*01 & L6_IGKJ1*01 (Fab, V domains shown)
VH: QVQLVQSGAEVKKPGASVKVSCKASGYTFTSYYMHWVRQAPGQGLEWMGIINPSGGSTSYAQKFQGRVTMTRDTSTSTVYMELSSLRSEDTAVYYCAREEYSSSSAEYFQHWGQGTLVTVSS
VL: not shown
notes: Only variable domains are tied to the molecule; Tested as a Fab made in E. coli: heavy chain from Plasmid A (CH1 constant region, His6 and Flag tags), kappa light chain from Plasmid C (kappa CL); also called parent Hit Fab against DLL4; VH1-46_IGHD6-6*01_IGHJ1*01 & L6_IGKJ1*01 (parental)
Turning to B2, the ECL signal in experiment [4] turned out to be 492 ECL signal; in experiment [5], 396 ECL signal; in [6], 424 ECL signal; in [7], 315 ECL signal; in experiment [8], 354 ECL signal; in [9] it was 13200 ECL signal. Also, the ECL signal stood at 324 ECL signal in experiment [10] and 306 ECL signal in experiment [11].

B3: Fab VH1-46_IGHD6-13*01_IGHJ4*01 & B3_IGKJ1*01 (Fab, V domains shown)
VH: QVQLVQSGAEVKKPGASVKVSCKASGYTFTSYYMHWVRQAPGQGLEWMGIINPSGGSTSYAQKFQGRVTMTRDTSTSTVYMELSSLRSEDTAVYYCAREGYSSSWYDYFDYWGQGTLVTVSS
VL: not shown
notes: Germline Fab made in E. coli; VH was cloned into Plasmid A (CH1, His6 and Flag tags) and the kappa VL into Plasmid C (kappa CL)
As to B3, the ECL signal in [12] was 1330; in experiment [13], 10300; in [14] it was 2320; in experiment [15], 1980.

B4: Fab VH1-46_IGHD6-6*01_IGHJ1*01 S102A/S103P/S104F (APF) & L6_IGKJ1*01 (Fab, V domains shown)
VH: QVQLVQSGAEVKKPGASVKVSCKASGYTFTSYYMHWVRQAPGQGLEWMGIINPSGGSTSYAQKFQGRVTMTRDTSTSTVYMELSSLRSEDTAVYYCAREEYAPFSAEYFQHWGQGTLVTVSS
VL: not shown
notes: Tested as a Fab made in E. coli: VH cloned in Plasmid A (CH1 constant region, His6 and Flag tags), VL in Plasmid C (kappa constant region); also called H:APF & L:wt; APF triple mutant
For the molecule B4, the ECL signal in experiment [16] was 760; in [17] it was 1010; in experiment [18] it was 613; in experiment [19], 28900; in [20], 1480.
